From the nanobody polyreactivity screen of Harvey et al. (2022)

Test: yeast display, Sf9 membrane polyspecificity reagent, FACS + sequencing; frameworks hold sequencing errors
How it was run: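 A nanobody's polyreactivity label depends on the gate it was sorted from. Yeast display cells were stained with 10% biotinylated, detergent-solubilized Sf9 membrane reagent for 1 hour at 4 °C, enriched on streptavidin microbeads and sorted by FACS. The low and high (top ~1%) gates were set on anti-HA fluorescence for expression and streptavidin fluorescence for reagent binding.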

| Sequence | polyreactivity (PSR sort gate) |
| --- | --- |
| QVQLVESGGGLVQAGGSLRLSCAASGFIFGVYAMGWYRQAPGKERELVAAISGSGGTTYYADSVKGRFTISRDNAKNTVYLQMISLKPEDTAVYYCNAAYRVRYIVNYDYWGQGTQVTVSS | low polyreactivity |
| QVQLVESGGGLVQAGGSLRLSCAASGFIFGVYAMGWYRQAPGKERELVASISVSGDDTYYADSVKGRFTISRDNAKNTVYLQMNSLKPEDTAVYYCAADYPGGIYYDDYLYDMDYWGQGTQVTVSS | low polyreactivity |
| QVQLVESGGGLVQAGGSLRLSCAASGFIFGVYDMGRYRQAPVKERDLVAAISIDDITNYADSVKGRFTISRDNAKNTVYLHLNSLKPEVTAVYYCAADGRTWWSNLEGEYWGQGTQVTVSS | low polyreactivity |
| QVQLVESGGGLVQAGGSLRLSCAASGFIFGWYAMGWYRQAPGKERELVAAINWSGTSTYYADSVKGRFTISRDNAKNTVYLQMNILKPEDTAVYYCAAYFQNLPTTGYDYWGQGTQVTVSS | low polyreactivity |
| QVQLVESGGGLVQAGGSLRLSCAASGFIFGWYTMGWYRQAPGKERELVASISRSGGSTYYAESVKARFTISRDNEKNSVYLQMNSQKPEDNPVYYCAKRSLVDAHGYWGQGTQVTVSS | high polyreactivity |
| QVQLVESGGGLVQAGGSLRLSCAASGFIFGYNAMGWYRQAPGKERELVAAMDWSGTSTYYADSVKGRFTISRDNAKNTVYLQMNSLKPEDTAVYYCAKVSRRGIVGYWGQGTQVTVSS | high polyreactivity |
| QVQLVESGGGLVQAGGSLRLSCAASGFIFGYYAMAWYRQAPGKERELVAAITSGTGTNYADSVKGRFTISRDNAKNTVYLQMNSLKPEDTAVYYCAAYYTWLSEFGYWGQGTQVTVSS | low polyreactivity |
| QVQLVESGGGLVQAGGSLRLSCAASGFIFGYYAMGGYRQAPGKERELVATIRQTGGSTRYADSVKGRFTISRDNAKNTVYLQMNSLIPEDTAVYYCAAYKWPSWRTWPYDSWGQGPQVTVSS | high polyreactivity |
| QVQLVESGGGLVQAGGSLRLSCAASGFIFGYYAMGWYRQAPAKERELVAAINWSGGSTYYADSVKGRFTISRDNAKNTVYLQMNSLKPEDTAVYYCAARYPYRRGGQDSYYYWGQGTQVTVSS | high polyreactivity |
| QVQLVESGGGLVQAGGSLRLSCAASGFIFGYYAMGWYRQAPGKERELVAAINGSGGSTYYADSVKGRFTISRDNAKNTVYLQMNSLKPEDTAVYYCNADVVPQYYSWGQGTQVTVSS | low polyreactivity |
| QVQLVESGGGLVQAGGSLRLSCAASGFIFGYYAMGWYRQAPGKERELVAAISKSGTDTYYADSVKGRFTISRDNAKNTVYLQMNSLKPEDTAVYYCNALLRGYSYGYDYWGQGTQVTVSS | high polyreactivity |
| QVQLVESGGGLVQAGGSLRLSCAASGFIFGYYAMGWYRQAPGKERELVAAITSGTGTNYADSVKGRFTISRDNAKNTVYLQMNSLKPEDTAVYYCAAYYTWLSEFGYWGQGTQVTVSS | low polyreactivity |
| QVQLVESGGGLVQAGGSLRLSCAASGFIFGYYAMGWYRQAPGKERELVAAITSGTSTNYADSVKGRFTISRDNAKYTVYLQMNSLKPDDTAVYYCAADRWRRRFYYWGQGTQVTVSS | high polyreactivity |
| QVQLVESGGGLVQAGGSLRLSCAASGFIFHGYALGWYRQAPGKERELVAAITRRGGRTDYADSVKGRFTISRDNAKNTVYLQMNSLKPEDTAVYYCAKRYTATEWHGERDYWGQGTQVTVSS | high polyreactivity |
| QVQLVESGGGLVQAGGSLRLSCAASGFIFHPNTMGWYRPAPGKERELVAGISYSGGITYTDSVKGRFTISRDNAKNTVYLQMNSLQPEDTAVYYFNARTKVAYYRHYYWGQGTQVTVSS | low polyreactivity |
| QVQLVESGGGLVQAGGSLRLSCAASGFIFHRNAMGWYRQAPGKERELVAAITRSSTSTYYADSVKGRFTISRDNAKNTVYLQMNSLKPEDTAVYYCNARYPSADDWGQGTQVTVSS | high polyreactivity |
| QVQLVESGGGLVQAGGSLRLSCAASGFIFHRYAMGWYRQAPGKERELVATITASGGSTYYADSVKGRFTISRDNAKNTVYLQMNSLKPEDTAVYYCAAGSFSRGRRTRQYNFDYWGQGTQVTVSS | high polyreactivity |
| QVQLVESGGGLVQAGGSLRLSCAASGFIFIKYAMGWYRQAPGKERELLAASSFRGGRTYYADSVKGRFTISRDNAKNTVYLQMNSLNPEETAVYYCAAETRDYSEGYYWGQGTQVTVSS | high polyreactivity |
| QVQLVESGGGLVQAGGSLRLSCAASGFIFIQNDMGWYRQAPGKEREFVASISKDGGRTYYADSVKGRFTISRDNAKNTVYLQMNSLKPEDTAVYYCNTYPRGNWGNFVEQDYDYWGQGTQVTVSS | low polyreactivity |
| QVQLVESGGGLVQAGGSLRLSCAASGFIFISNAMGWSRQAPGKERELVARISDTDRTHYADSVKGRFTISRDNAKNTVYLQMNSLKPEDTAVYYCAAYDYNAIEYGYWGQGSQVTVSS | low polyreactivity |
| QVQLVESGGGLVQAGGSLRLSCAASGFIFIYYAMGWYRQAPGKERELVAGITSGGSTNYADSVKGRFTISRDNAKNTVYLQMNSLKPEDTAVYYCAAGSSARWYPRYNYWGQGTQVTVSS | high polyreactivity |

| Sequence | polyreactivity (PSR sort gate) |
| --- | --- |
| QVQLVESGGGLVQAGGSLRLSCAASGFIFKFYAMGWYRQAHGKERELVAAISKSGGRTYYADSVKGRFTISRDNAKNTVYLQMNSLKPEDTAVYYCNAPSVGAAFDYWGQGTQVTVSS | high polyreactivity |
| QVQLVESGGGLVQAGGSLRLSCAASGFIFKKYVMGWYRQAPGKERELVAGSSRSGGSTYYADSVKGRFTISRDNAKNTVYVQMNSLKPEDTAVYYCAAYIYQSPTRGGGYWGQGTQVSVSS | high polyreactivity |
| QVQLVESGGGLVQAGGSLRLSCAASGFIFKPYAMGWYRQAPGKERELVAAITVNGGTTYYADSVKGRFTISRDNAKNTVYLQMNSLKPEDTAVYYCNRGRPGGPSWYHYDYWGQGTQGTVSS | high polyreactivity |
| QVQLVESGGGLVQAGGSLRLSCAASGFIFKRYAMGWYRQAPGKERELVAAITSSGGRTYYADSVKGRFTISRDNAKNTVYLQMISLKPEDTAVYYCAKGWSTYYTKMNYWGQGTQVTVSS | low polyreactivity |
| QVQLVESGGGLVQAGGSLRLSCAASGFIFKSYAMGWYRQAPGKERELVAAITRGDNTNYADSVKGRFTISRDNAKNTFYLQMNSLKPEDTAVYYCAADRYTVRMDYWGQGTQVTVSS | high polyreactivity |
| QVQLVESGGGLVQAGGSLRLSCAASGFIFKTYAMGWYRQAPGKERELVAAITGTGTSTYYADSVKGRFTISRDNAKNTVYLQMNSLKTEDTAVYYCAAEFGGRSYYPRHEYWGQGTQVTVSS | low polyreactivity |
| QVQLVESGGGLVQAGGSLRLSCAASGFIFKYNAMGWYRQAPGKERELVAAITSSGGSTYYADSVKGRFTISRDNAKNTVYLQMNSLKPEDTAVYYCNRVRDPSYDYWGQGTQVTVSS | high polyreactivity |
| QVQLVESGGGLVQAGGSLRLSCAASGFIFKYYAMGWYRQAPGKERELVAAISRSGGSTYYADSVKGRFTISRDNAKNTVYLLMNSLKPEDTAVYYCAADSSWVHEYYYWGQGTQVTVSS | high polyreactivity |
| QVQLVESGGGLVQAGGSLRLSCAASGFIFKYYAMGWYRQAPGKERELVATITRRGGSTYYADSVKGRFTISRDNAKNTVYLQMNSLKPEDTAVYYCNVTPDWNARRPFDYWGQGTKVTVSS | high polyreactivity |
| QVQLVESGGGLVQAGGSLRLSCAASGFIFLIYAMGWYRQAPGKERELVATIRYSGGRTYYADSVKGRFTISRDNAKNTVYLQMNSLKPEDTAVYYCAARSVWFSGQGRMNYWGQGTQVTVSS | high polyreactivity |
| QVQLVESGGGLVQAGGSLRLSCAASGFIFLRYAMGWYRQAPGKERELVAAISSSGGRTTYADSVKGRFTISRDNAKNTLYLQMNSLKPEDTAVYYCNADLWPGNHDGYWGQGTQVTVSS | low polyreactivity |
| QVQLVESGGGLVQAGGSLRLSCAASGFIFLRYGMGWYRPAPGKERELVASIDSTGGSTYADSVKGRFTISRDNAKNTVYLQMNSLKPEDTAVDYCAAAYYIVSERDYWGQGTQVTVSS | low polyreactivity |
| QVQLVESGGGLVQAGGSLRLSCAASGFIFLSYAKGWYRQAPGKERELVATITWSGGRTYYADSVKGRFTISRDNAKNTVYLQMNSLKPEDTAVYYCAKVNTYYNIYVTFDYWGQGTQVTVSS | low polyreactivity |
| QVQLVESGGGLVQAGGSLRLSCAASGFIFLYYAMGWYRQAPGKERELVAVITRGGRTYYADSVKGRFTISRDNAKNTVYLQMNSLKPEDTAVYYCAAKAYSYFARIGFDYWGQGTQVTVSS | high polyreactivity |
| QVQLVESGGGLVQAGGSLRLSCAASGFIFLYYAMGWYRQAPGKERELVPYISRGADTKYADSVKGRFTISRDNAKNTVYLQMNSLKPEDTAVYYCATDITTFWFPYPGVELGYWGQGTQVTVAS | low polyreactivity |
| QVQLVESGGGLVQAGGSLRLSCAASGFIFNDYAMGWYRQAPGKERELVAAISRSGGSTYYADSVKGRFTISRDNAKNTVYLQMNSLKAEDTAVYYCAADGLSGYRYYYWGQGTQVTVSS | high polyreactivity |
| QVQLVESGGGLVQAGGSLRLSCAASGFIFNLYAMGWYRQAPGKERELVAAISSGGGTSYADSVKGRFTISRDNAKNTDYLQMNSLKPEDTAVYYCAKRSGTYPFNFRFDYWGQGTQVTVSS | high polyreactivity |
| QVQLVESGGGLVQAGGSLRLSCAASGFIFNYYVMGGYRQAPGKERELVATISWRGGRTYYADSVKGRFTISRDNAKNTVYLQMNSLKPEDTAVYYCAADSFYYRPEYDYWGQGTQVTVSS | low polyreactivity |
| QVQLVESGGGLVQAGGSLRLSCAASGFIFPANAMGWSRQAPGKEREFVAAISRSGGTTYYADSVKGRFTISRDHAKNTVYLQMNSLKPEDTAVYYCAARYAIGPGYDYWGQGTQVTVSS | high polyreactivity |
| QVQLVESGGGLVQAGGSLRLSCAASGFIFPAYVMGWYRQAPGKERELVAAISRRGGSTYYADSVKGRFTISRDNAKNTVYLQMNRLKPEDTSVYYCAAVFKAGSAYDYWGQGTQVTVSS | high polyreactivity |
